What was measured:
Assay in all cases: cell-based or functional assay
[1] = molecular target: 980603 (Röhm): purified preparation of Frimond's Belase xylanase (identical to Röhm's) (Bacillus subtilis)
[2] = molecular target: 980601 (BX): purified preparation of Danisco's new bacterial xylanase expressed in E. coli (Bacillus subtilis) (UniProt P18429)
[3] = molecular target: 980903 (XM1): purified mutant of Bacillus sub. wild type xylanase expressed in E. coli

Sequence of endogenous endo-β-1,4-xylanase inhibitor from wheat flour (main, form in doubt): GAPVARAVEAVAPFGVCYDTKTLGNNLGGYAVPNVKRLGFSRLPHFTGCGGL
Sequence of endogenous endo-β-1,4-xylanase inhibitor from wheat flour (main, form in doubt): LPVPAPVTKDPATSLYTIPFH

Inhibition, % (inhibitor extracted from flour 98002) [1]: 60.8% | Inhibition, % (inhibitor extracted from flour 98026) [1]: 61.3% | Rest act., % (average of flours 98002 and 98026) [1]: 39% | Rest act., % (inhibitor extracted from flour 98002) [1]: 39.2% | Rest act., % (inhibitor extracted from flour 98026) [1]: 38.7% | Inhibition, % (inhibitor extracted from flour 98002) [2]: 67% | Inhibition, % (inhibitor extracted from flour 98026) [2]: 75% | OD 590 in the inhibitor assay with inhibitor extract from flour 98026 (without inhibitor: 0.675) [2]: 0.165 OD 590 | Residual activity, % (inhibitor extract from flour 98026) [2]: 24.4% | Rest act., % (average of flours 98002 and 98026) [2]: 29% | Rest act., % (inhibitor extracted from flour 98002) [2]: 33% | Rest act., % (inhibitor extracted from flour 98026) [2]: 25% | Vmax from the Lineweaver-Burk plot of xylanase 980601 with and without inhibitor (relative OD 590) (relative OD 590) [2]: 1.19 | residual activity of XM1 after incubation with flour extract, relative to that of XM2 [3]: 2.5 fold
Substance: endogenous endo-β-1,4-xylanase inhibitor from wheat flour
